For the assay, the target named is GCaMP2 [GFP: P42212]. In words: SEC.

For “GCaMP2 (from UniProt P42212 149-238; P42212 1-144)”, the percent present as dimer at the concentrations seen in the brain slice (∼10 μM) came out at 5% and the stoichiometry N was found to be 2.

The values are drawn from publication PMC2649101.
